According to publication PMC5786021, “A dynamic allosteric pathway underlies Rad50 ABC ATPase function in DNA repair” (Scientific Reports, 2018):

Legend:
Assay in all cases: reconstitution and co-purification by ion-exchange chromatography; Rad50^NBD mixed with a slight excess of Mre11^HLH, heated at 60 °C for 10 min, cooled, complex purified on a HiTrap SP HP column; complex then used for methyl-TROSY NMR at 50 °C
Conditions in all cases: both partners purified
[1] = target: T1, P. furiosus Rad50^NBD (V156M) (P. furiosus, UniProt P58301 1-195; P58301 709-882, V156M)
T1 construct: Rad50, Pyrococcus furiosus, N-terminal ABC-ATPase sub-domain, residues 1-195; flexible linker that replaces the coiled-coil and Zn-hook; Rad50, Pyrococcus furiosus, C-terminal ABC-ATPase sub-domain, residues 709-882; Point mutation made by Quikchange in the Rad50^NBD construct; source: E. coli BL21(DE3) C41, purified (HisTrap, HiTrap SP, Superdex 200)
T1 sequence (P58301 other isoform, or with tags, fused parts or gaps V156M | V156M | V156M V156M): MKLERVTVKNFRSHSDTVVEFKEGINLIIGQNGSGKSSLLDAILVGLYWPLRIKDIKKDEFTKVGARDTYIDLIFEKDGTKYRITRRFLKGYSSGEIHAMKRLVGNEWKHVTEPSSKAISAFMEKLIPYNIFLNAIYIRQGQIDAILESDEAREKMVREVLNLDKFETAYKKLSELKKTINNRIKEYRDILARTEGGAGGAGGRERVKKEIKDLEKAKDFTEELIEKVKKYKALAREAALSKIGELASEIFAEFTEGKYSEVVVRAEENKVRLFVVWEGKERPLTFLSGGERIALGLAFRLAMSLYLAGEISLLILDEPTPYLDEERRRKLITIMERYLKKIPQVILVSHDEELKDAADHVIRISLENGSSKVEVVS

[2] = target: T2, P. furiosus Rad50^NBD (V157M) (P. furiosus, UniProt P58301 1-195; P58301 709-882, V157M)
T2 construct: Rad50, Pyrococcus furiosus, N-terminal ABC-ATPase sub-domain, residues 1-195; flexible linker that replaces the coiled-coil and Zn-hook; Rad50, Pyrococcus furiosus, C-terminal ABC-ATPase sub-domain, residues 709-882; Point mutation made by Quikchange in the Rad50^NBD construct; source: E. coli BL21(DE3) C41, purified (HisTrap, HiTrap SP, Superdex 200)
T2 sequence (P58301 other isoform, or with tags, fused parts or gaps V157M | V157M | V157M V157M): as the sequence (P58301 other isoform, or with tags, fused parts or gaps V156M | V156M | V156M V156M) above, with M156V, V157M counted along it

[3] = target: T3, P. furiosus Rad50^NBD (V160M) (P. furiosus, UniProt P58301 1-195; P58301 709-882, V160M)
T3 construct: Rad50, Pyrococcus furiosus, N-terminal ABC-ATPase sub-domain, residues 1-195; flexible linker that replaces the coiled-coil and Zn-hook; Rad50, Pyrococcus furiosus, C-terminal ABC-ATPase sub-domain, residues 709-882; Point mutation made by Quikchange in the Rad50^NBD construct; source: E. coli BL21(DE3) C41, purified (HisTrap, HiTrap SP, Superdex 200)
T3 sequence (P58301 other isoform, or with tags, fused parts or gaps V160M | V160M | V160M V160M): as the sequence (P58301 other isoform, or with tags, fused parts or gaps V156M | V156M | V156M V156M) above, with M156V, V160M counted along it

[4] = target: T4, P. furiosus Rad50^NBD (R805E) (P. furiosus, UniProt P58301 1-195; P58301 709-882, R805E)
T4 construct: Rad50, Pyrococcus furiosus, N-terminal ABC-ATPase sub-domain, residues 1-195; flexible linker that replaces the coiled-coil and Zn-hook; Rad50, Pyrococcus furiosus, C-terminal ABC-ATPase sub-domain, residues 709-882; Point mutation made by Quikchange in the Rad50^NBD construct; also called basic switch mutant; source: E. coli BL21(DE3) C41, purified (HisTrap, HiTrap SP, Superdex 200)
T4 sequence (P58301 other isoform, or with tags, fused parts or gaps R805E | R805E | R805E R805E): as the sequence (P58301 other isoform, or with tags, fused parts or gaps V156M | V156M | V156M V156M) above, with M156V, R300E counted along it

Measured: binding result

B1: P. furiosus Mre11 helix-loop-helix domain (Mre11^HLH, aa344-426) (domain or fragment)
chain: not shown
notes: Mre11, Pyrococcus furiosus, helix-loop-helix domain, residues 344-426, sub-cloned from codon optimized full-length Pf Mre11; Protonated (unlabelled) in the NMR samples; source: E. coli BL21(DE3) C41, purified (HisTrap, HiTrap Phenyl HP); not shown: NusA, N-terminal, cleaved; His6, N-terminal, cleaved
binds: all assays above
